Measurements published in article PMC9482650, “Quantitative fragmentomics allow affinity mapping of interactomes” (Nature Communications, 2022).

Key:
Experiment in all cases: holdup assay
Parameters in all cases: key: below the threshold = too weak to quantify, mostly under pKd 3.1 to 4
[1] = target: T1, MPDZ_12, O75970
T1 sequence (O75970 1857-1958, limits assumed, looked up): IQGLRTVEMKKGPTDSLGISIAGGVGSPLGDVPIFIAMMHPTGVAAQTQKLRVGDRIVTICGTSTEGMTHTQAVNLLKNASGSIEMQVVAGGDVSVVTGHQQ

[2] = target: NHERF4_2, Q86UT5
[3] = target: FRMPD2_2, Q68DX3
[4] = target: LIMK2, P53671
[5] = target: DLG4_2, P78352
[6] = target: T2, LIN7B, Q9HAP6
T2 sequence (Q9HAP6 88-185, limits assumed, looked up): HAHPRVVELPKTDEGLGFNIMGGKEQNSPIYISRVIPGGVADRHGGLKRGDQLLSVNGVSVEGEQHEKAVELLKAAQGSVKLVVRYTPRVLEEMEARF

[7] = target: LNX1_3, Q8TBB1
[8] = target: T3, SNTG2, Q9NY99
T3 sequence (Q9NY99 68-166, limits assumed, looked up): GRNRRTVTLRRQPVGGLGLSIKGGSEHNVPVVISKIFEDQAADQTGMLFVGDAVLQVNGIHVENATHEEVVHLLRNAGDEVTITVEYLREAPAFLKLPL

[9] = target: T4, GRIP1_7, Q9Y3R0
T4 sequence (Q9Y3R0 999-1096, limits assumed, looked up): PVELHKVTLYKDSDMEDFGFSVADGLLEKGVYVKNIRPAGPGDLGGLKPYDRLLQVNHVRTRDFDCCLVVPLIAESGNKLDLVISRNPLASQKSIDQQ

[10] = target: MAGI2_4, Q86UL8
[11] = target: AHNAK1, Q09666
[12] = target: MAGI2_6, Q86UL8
[13] = target: GRID2IP_2, A4D2P6
[14] = target: T5, DLG3_3, Q92796
T5 sequence (Q92796 374-475, limits assumed, looked up): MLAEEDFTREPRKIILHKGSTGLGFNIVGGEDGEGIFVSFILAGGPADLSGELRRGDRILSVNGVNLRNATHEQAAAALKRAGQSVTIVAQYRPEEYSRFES

[15] = target: FRMPD4, Q14CM0
[16] = target: T6, MPP2, Q14168
T6 sequence (Q14168 180-250, limits assumed, looked up): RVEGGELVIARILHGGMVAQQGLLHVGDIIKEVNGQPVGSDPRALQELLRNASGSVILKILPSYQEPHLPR

[17] = target: FRMPD2_1, Q68DX3
[18] = target: T7, PTPN13_1, Q12923
T7 sequence (Q12923 1088-1188, limits assumed, looked up): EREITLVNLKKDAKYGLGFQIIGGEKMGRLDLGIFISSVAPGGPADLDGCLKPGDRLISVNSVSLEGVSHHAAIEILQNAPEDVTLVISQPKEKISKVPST

[19] = target: SCRIB_3, Q14160
[20] = target: DLG1_2, Q12959
[21] = target: T8, NHERF3_4, Q5T2W1
T8 sequence (Q5T2W1 373-468, limits assumed, looked up): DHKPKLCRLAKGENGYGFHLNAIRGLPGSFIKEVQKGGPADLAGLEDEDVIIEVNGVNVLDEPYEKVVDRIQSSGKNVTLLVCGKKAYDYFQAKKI

[22] = target: GRIP2_7, Q9C0E4
[23] = target: PARD3_3, Q8TEW0
[24] = target: NOS1, P29475
[25] = target: T9, APBA1_2, Q02410
T9 sequence (Q02410 742-832, limits assumed, looked up): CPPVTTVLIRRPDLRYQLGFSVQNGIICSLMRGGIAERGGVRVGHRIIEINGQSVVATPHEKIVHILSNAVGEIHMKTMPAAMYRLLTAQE

[26] = target: T10, PDZD2_2, O15018
T10 sequence (O15018 329-429, limits assumed, looked up): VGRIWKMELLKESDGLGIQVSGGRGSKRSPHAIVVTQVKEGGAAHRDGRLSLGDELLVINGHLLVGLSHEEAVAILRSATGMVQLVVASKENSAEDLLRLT

[27] = target: T11, GRIP1_4, Q9Y3R0
T11 sequence (Q9Y3R0 467-571, limits assumed, looked up): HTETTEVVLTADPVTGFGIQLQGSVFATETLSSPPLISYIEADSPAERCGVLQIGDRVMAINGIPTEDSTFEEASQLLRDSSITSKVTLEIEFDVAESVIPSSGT

[28] = plain residues with an end cap or a label only (N-terminal biotin on a linker: ahx)
[29] = plain residues with an end cap or a label only (N-terminal biotin on a linker: ttds)

LNX1_3, Q8TBB1, sequence (Q8TBB1 500-596): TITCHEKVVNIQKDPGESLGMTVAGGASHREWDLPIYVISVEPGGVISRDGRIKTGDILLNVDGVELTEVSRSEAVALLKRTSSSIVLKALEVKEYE
NOS1, P29475, sequence (P29475 9-101): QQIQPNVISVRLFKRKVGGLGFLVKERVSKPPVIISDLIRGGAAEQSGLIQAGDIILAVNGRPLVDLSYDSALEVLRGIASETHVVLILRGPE
GRID2IP_2, A4D2P6, sequence (A4D2P6 272-370): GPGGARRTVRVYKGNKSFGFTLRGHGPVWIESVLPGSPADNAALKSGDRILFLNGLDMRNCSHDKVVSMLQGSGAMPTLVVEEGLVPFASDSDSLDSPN
FRMPD2_1, Q68DX3, sequence (Q68DX3 770-861): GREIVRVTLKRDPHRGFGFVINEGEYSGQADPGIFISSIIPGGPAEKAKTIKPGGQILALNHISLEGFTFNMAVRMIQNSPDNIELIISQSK
PARD3_3, Q8TEW0, sequence (Q8TEW0 582-685): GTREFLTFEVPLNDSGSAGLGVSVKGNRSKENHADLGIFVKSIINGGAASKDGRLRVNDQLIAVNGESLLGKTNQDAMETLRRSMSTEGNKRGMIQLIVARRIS
MAGI2_4, Q86UL8, sequence (Q86UL8 772-865): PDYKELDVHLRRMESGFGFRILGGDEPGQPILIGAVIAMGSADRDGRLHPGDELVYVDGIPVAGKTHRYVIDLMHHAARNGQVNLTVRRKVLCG
SCRIB_3, Q14160, sequence (Q14160 999-1103): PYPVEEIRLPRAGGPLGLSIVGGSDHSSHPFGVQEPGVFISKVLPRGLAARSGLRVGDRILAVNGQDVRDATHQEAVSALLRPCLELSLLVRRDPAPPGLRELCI
FRMPD4, Q14CM0, sequence (Q14CM0 67-160): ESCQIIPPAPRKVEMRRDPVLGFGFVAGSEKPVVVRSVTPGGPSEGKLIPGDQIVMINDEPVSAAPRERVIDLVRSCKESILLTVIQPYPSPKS
DLG4_2, P78352, sequence (P78352 155-259): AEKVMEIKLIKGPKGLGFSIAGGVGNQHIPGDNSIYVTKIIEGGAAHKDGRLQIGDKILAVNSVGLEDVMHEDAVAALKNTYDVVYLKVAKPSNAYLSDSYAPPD
MAGI2_6, Q86UL8, sequence (Q86UL8 1141-1229): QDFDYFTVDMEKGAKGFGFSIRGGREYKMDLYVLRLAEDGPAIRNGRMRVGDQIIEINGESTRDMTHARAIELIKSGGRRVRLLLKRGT
FRMPD2_2, Q68DX3, sequence (Q68DX3 944-1038): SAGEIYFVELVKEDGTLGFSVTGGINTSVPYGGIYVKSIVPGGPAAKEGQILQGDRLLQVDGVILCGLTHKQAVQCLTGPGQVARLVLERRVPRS
AHNAK1, Q09666, sequence (Q09666 4-100): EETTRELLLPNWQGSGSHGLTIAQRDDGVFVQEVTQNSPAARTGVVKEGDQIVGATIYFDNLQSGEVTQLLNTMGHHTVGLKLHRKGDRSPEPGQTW
DLG1_2, Q12959, sequence (Q12959 314-412): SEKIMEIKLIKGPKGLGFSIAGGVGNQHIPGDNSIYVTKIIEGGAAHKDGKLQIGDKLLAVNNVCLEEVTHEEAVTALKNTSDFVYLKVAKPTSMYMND
LIMK2, P53671, sequence (P53671 143-248): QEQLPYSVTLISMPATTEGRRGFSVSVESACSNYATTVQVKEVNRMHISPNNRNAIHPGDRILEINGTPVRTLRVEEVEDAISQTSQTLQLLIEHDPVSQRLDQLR
NHERF4_2, Q86UT5, sequence (Q86UT5 220-308): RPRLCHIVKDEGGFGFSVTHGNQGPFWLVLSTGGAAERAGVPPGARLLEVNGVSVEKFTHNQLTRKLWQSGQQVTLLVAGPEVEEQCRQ
GRIP2_7, Q9C0E4, sequence (Q9C0E4 934-1023): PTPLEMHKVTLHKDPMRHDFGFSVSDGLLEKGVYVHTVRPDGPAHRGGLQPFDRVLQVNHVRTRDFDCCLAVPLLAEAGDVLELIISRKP

B1: GRIN2B, Q13224 (peptide)
chain: EKLSSIESDV
With B1 the pKd [1, 28] was “below the threshold”, the pKd [2, 28] was “below the threshold” and the pKd [3, 28] was 3.91. The pKd [4, 28] was “below the threshold”, the pKd [5, 28] was 4.86 and the pKd [6, 28] was “below the threshold”. The pKd [7, 28] was “below the threshold”, the pKd [8, 28] was 4.04 and the pKd [9, 28] was 3.48. For the same binder, the pKd [10, 28] was 3.61, the pKd [11, 28] was “below the threshold” and the pKd [12, 28] was 4.65. For the same binder, the pKd [13, 28] was “below the threshold”, the pKd [14, 28] was “below the threshold” and the pKd [15, 28] was “below the threshold”. The pKd [16, 28] was “below the threshold”, the pKd [17, 28] was “below the threshold” and the pKd [18, 28] was “below the threshold”. For the same binder, the pKd [19, 28] was 4.28, the pKd [20, 28] was 4.97 and the pKd [21, 28] was “below the threshold”. The pKd [22, 28] was 3.53, the pKd [23, 28] was “below the threshold” and the pKd [24, 28] was “below the threshold”. For the same binder, the pKd [25, 28] was “below the threshold”, the pKd [26, 28] was 4.82 and the pKd [27, 28] was “below the threshold”.

B2: PBK, Q96KB5 (peptide)
chain: HIVEALETDV
With B2 the pKd [1, 29] was “below the threshold”, the pKd [2, 29] was “below the threshold” and the pKd [3, 29] was 4.66. For the same binder, the pKd [4, 29] was “below the threshold”, the pKd [5, 29] was 5.55 and the pKd [6, 29] was “below the threshold”. The pKd [7, 29] was “below the threshold”, the pKd [8, 29] was 4.85 and the pKd [9, 29] was “below the threshold”. For the same binder, the pKd [10, 29] was 4.4, the pKd [11, 29] was “below the threshold” and the pKd [12, 29] was 5.35. For the same binder, the pKd [13, 29] was 3.96, the pKd [14, 29] was 3.88 and the pKd [15, 29] was “below the threshold”. For the same binder, the pKd [16, 29] was “below the threshold”, the pKd [17, 29] was “below the threshold” and the pKd [18, 29] was “below the threshold”. For the same binder, the pKd [19, 29] was 5.18, the pKd [20, 29] was 5.66 and the pKd [21, 29] was “below the threshold”. The pKd [22, 29] was 3.91, the pKd [23, 29] was 3.76 and the pKd [24, 29] was “below the threshold”. The pKd [25, 29] was 4.27, the pKd [26, 29] was 4.84 and the pKd [27, 29] was “below the threshold”.
